This passage reports Kd results from patent publication US20210388110A1 (published 2021).

This assay addresses T1, soluble human CD3ε chain (human, UniProt P07766 23-126, limits assumed).
T1 construct: also called human CD3 epsilon chain
As to the kind of experiment: SPR (Biacore), soluble human CD3ε chain.

T1 sequence (P07766 23-126 limits assumed): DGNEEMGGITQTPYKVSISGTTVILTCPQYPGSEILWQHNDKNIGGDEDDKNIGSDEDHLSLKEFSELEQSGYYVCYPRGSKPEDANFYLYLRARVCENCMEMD

B1: TR01H040-E22Hh/none-Hi-Kn010G3/TR01L007-k0 (antibody, human IgG1, kappa, L234A L235A, N297A)
heavy: QVQLVESGGGLVQPGRSLRLSCAASGFTFSNAWMHWVRQAPGKGLEWVAQIKDKSQNYATYYAESVKGRFTISRADSKNSIYLQMNSLKTEDTAVYYCRYVHYSASYGVDAWGQGTTVTVSSASTKGPSVFPLAPSSKSTSGGTAALGCLVKDYFPEPVTVSWNSGALTSGVHTFPAVLQSSGLYSLSSVVTVPSSSLGTQTYICNVNHKPSNTKVDKKVEPKSCDKTHTCPPCPAPEAAGGPSVFLFPPKPKDTLMISRTPEVTCVVVDVSHEDPEVKFNWYVDGVEVHNAKTKPREEQYASTYRVVSVLTVLHQDWLNGKEYKCKVSNKALPAPIEKTISKAKGQPREPQVYTLPPSRCELTKNQVSLSCAVKGFYPSDIAVEWESNGQPENNYKTTPPVLDSDGSFFLVSKLTVDKSRWQQGNVFSCSVMHEALHNHYTQKSLSLSPDYKDDDDK
chain: EPKSSDKTHTCPPCPAPELLGGPSVFLFPPKPKDTLMISRTPEVTCVVVDVSHEDPEVKFNWYVDGVEVHNAKTKPREEQYNSTYRVVSVLTVLHQDWLNGKEYKCKVSNKALPAPIEKTISKAKGQPREPQVCTLPPSRDELTKNQVSLWCLVKGFYPSDIAVEWESNGQPENNYKTTPPVLDSDGSFFLYSKLTVDKSRWQQGNVFSCSVMHEALHNRYTQKSLSLSP
light: DIVMTQSPLSLPVTPGEPASISCQASESLVHSNRNTYLHWYLQKPGQSPQLLIYKVSNRFSGVPDRFSGSGSGTDFTLKISRVEAEDVGVYYCGQGTQVPYTFGQGTKLEIKRTVAAPSVFIFPPSDEQLKSGTASVVCLLNNFYPREAKVQWKVDNALQSGNSQESVTEQDSKDSTYSLSSTLTLSKADYEKHKVYACEVTHQGLSSPVTKSFNRGEC
notes: one-arm antibody (single Fab) with Fab-less hinge-Fc chain Hi-Kn010G3
The molecule B1 gave a dissociation constant Kd of 0.0682 µM.

B2: TR01H058-E22Hh/none-Hi-Kn010G3/L0000-k0 (antibody, human IgG1, kappa, L234A L235A, N297A)
heavy: QVQLVESGGGLVQPGRSLRLSCAASGFTFSNAWMHWVRQAPGKGLEWVAQIKDKSQNYATYYAESVKGRFTISRDDSKNSLYLQMNSLKTEDTAVYYCRYVHYSASYGVDYWGQGTTVTVSSASTKGPSVFPLAPSSKSTSGGTAALGCLVKDYFPEPVTVSWNSGALTSGVHTFPAVLQSSGLYSLSSVVTVPSSSLGTQTYICNVNHKPSNTKVDKKVEPKSCDKTHTCPPCPAPEAAGGPSVFLFPPKPKDTLMISRTPEVTCVVVDVSHEDPEVKFNWYVDGVEVHNAKTKPREEQYASTYRVVSVLTVLHQDWLNGKEYKCKVSNKALPAPIEKTISKAKGQPREPQVYTLPPSRCELTKNQVSLSCAVKGFYPSDIAVEWESNGQPENNYKTTPPVLDSDGSFFLVSKLTVDKSRWQQGNVFSCSVMHEALHNHYTQKSLSLSPDYKDDDDK
chain: EPKSSDKTHTCPPCPAPELLGGPSVFLFPPKPKDTLMISRTPEVTCVVVDVSHEDPEVKFNWYVDGVEVHNAKTKPREEQYNSTYRVVSVLTVLHQDWLNGKEYKCKVSNKALPAPIEKTISKAKGQPREPQVCTLPPSRDELTKNQVSLWCLVKGFYPSDIAVEWESNGQPENNYKTTPPVLDSDGSFFLYSKLTVDKSRWQQGNVFSCSVMHEALHNRYTQKSLSLSP
light: DIVMTQSPLSLPVTPGEPASISCRSSQSLVHSNRNTYLHWYQQKPGQAPRLLIYKVSNRFSGVPDRFSGSGSGTDFTLKISRVEAEDVGVYYCGQGTQVPYTFGQGTKLEIKRTVAAPSVFIFPPSDEQLKSGTASVVCLLNNFYPREAKVQWKVDNALQSGNSQESVTEQDSKDSTYSLSSTLTLSKADYEKHKVYACEVTHQGLSSPVTKSFNRGEC
notes: as for B1
Molecule B2 gave a Kd of 0.115 µM.

B3: TR01H057-E22Hh/none-Hi-Kn010G3/L0000-k0 (antibody, human IgG1, kappa, L234A L235A, N297A)
heavy: QVQLVESGGGLVQPGRSLRLSCAASGFTFSNAWMHWVRQAPGKGLEWVAQIKDKSQNYATYYAESVKGRFTISRDDSKNSLYLQMNSLKTEDTAVYYCRYVHYSASYGVDAWGQGTTVTVSSASTKGPSVFPLAPSSKSTSGGTAALGCLVKDYFPEPVTVSWNSGALTSGVHTFPAVLQSSGLYSLSSVVTVPSSSLGTQTYICNVNHKPSNTKVDKKVEPKSCDKTHTCPPCPAPEAAGGPSVFLFPPKPKDTLMISRTPEVTCVVVDVSHEDPEVKFNWYVDGVEVHNAKTKPREEQYASTYRVVSVLTVLHQDWLNGKEYKCKVSNKALPAPIEKTISKAKGQPREPQVYTLPPSRCELTKNQVSLSCAVKGFYPSDIAVEWESNGQPENNYKTTPPVLDSDGSFFLVSKLTVDKSRWQQGNVFSCSVMHEALHNHYTQKSLSLSPDYKDDDDK
chain: EPKSSDKTHTCPPCPAPELLGGPSVFLFPPKPKDTLMISRTPEVTCVVVDVSHEDPEVKFNWYVDGVEVHNAKTKPREEQYNSTYRVVSVLTVLHQDWLNGKEYKCKVSNKALPAPIEKTISKAKGQPREPQVCTLPPSRDELTKNQVSLWCLVKGFYPSDIAVEWESNGQPENNYKTTPPVLDSDGSFFLYSKLTVDKSRWQQGNVFSCSVMHEALHNRYTQKSLSLSP
light: DIVMTQSPLSLPVTPGEPASISCRSSQSLVHSNRNTYLHWYQQKPGQAPRLLIYKVSNRFSGVPDRFSGSGSGTDFTLKISRVEAEDVGVYYCGQGTQVPYTFGQGTKLEIKRTVAAPSVFIFPPSDEQLKSGTASVVCLLNNFYPREAKVQWKVDNALQSGNSQESVTEQDSKDSTYSLSSTLTLSKADYEKHKVYACEVTHQGLSSPVTKSFNRGEC
notes: as for B1
For the molecule B3, the affinity, expressed as Kd, was 0.112 µM.

B4: TR01H053-E22Hh/none-Hi-Kn010G3/L0000-k0 (antibody, human IgG1, kappa, L234A L235A, N297A)
heavy: QVQLVESGGGLVQPGRSLRLSCAASGFTFSNAWMHWVRQAPGKGLEWVAQIKDKSQNYATYYAESVKGRFTISRADSKNSLYLQMNSLKTEDTAVYYCRYVHYSASYGVDAWGQGTTVTVSSASTKGPSVFPLAPSSKSTSGGTAALGCLVKDYFPEPVTVSWNSGALTSGVHTFPAVLQSSGLYSLSSVVTVPSSSLGTQTYICNVNHKPSNTKVDKKVEPKSCDKTHTCPPCPAPEAAGGPSVFLFPPKPKDTLMISRTPEVTCVVVDVSHEDPEVKFNWYVDGVEVHNAKTKPREEQYASTYRVVSVLTVLHQDWLNGKEYKCKVSNKALPAPIEKTISKAKGQPREPQVYTLPPSRCELTKNQVSLSCAVKGFYPSDIAVEWESNGQPENNYKTTPPVLDSDGSFFLVSKLTVDKSRWQQGNVFSCSVMHEALHNHYTQKSLSLSPDYKDDDDK
chain: EPKSSDKTHTCPPCPAPELLGGPSVFLFPPKPKDTLMISRTPEVTCVVVDVSHEDPEVKFNWYVDGVEVHNAKTKPREEQYNSTYRVVSVLTVLHQDWLNGKEYKCKVSNKALPAPIEKTISKAKGQPREPQVCTLPPSRDELTKNQVSLWCLVKGFYPSDIAVEWESNGQPENNYKTTPPVLDSDGSFFLYSKLTVDKSRWQQGNVFSCSVMHEALHNRYTQKSLSLSP
light: DIVMTQSPLSLPVTPGEPASISCRSSQSLVHSNRNTYLHWYQQKPGQAPRLLIYKVSNRFSGVPDRFSGSGSGTDFTLKISRVEAEDVGVYYCGQGTQVPYTFGQGTKLEIKRTVAAPSVFIFPPSDEQLKSGTASVVCLLNNFYPREAKVQWKVDNALQSGNSQESVTEQDSKDSTYSLSSTLTLSKADYEKHKVYACEVTHQGLSSPVTKSFNRGEC
notes: as for B1
B4: binding was put at a Kd of 0.0823 µM.

B5: TR01H054-E22Hh/none-Hi-Kn010G3/L0000-k0 (antibody, human IgG1, kappa, L234A L235A, N297A)
heavy: QVQLVESGGGLVQPGRSLRLSCAASGFTFSNAWMHWVRQAPGKGLEWVAQIKDKSQNYATYYAESVKGRFTISRADSKNSLYLQMNSLKTEDTAVYYCRYVHYSASYGVDYWGQGTTVTVSSASTKGPSVFPLAPSSKSTSGGTAALGCLVKDYFPEPVTVSWNSGALTSGVHTFPAVLQSSGLYSLSSVVTVPSSSLGTQTYICNVNHKPSNTKVDKKVEPKSCDKTHTCPPCPAPEAAGGPSVFLFPPKPKDTLMISRTPEVTCVVVDVSHEDPEVKFNWYVDGVEVHNAKTKPREEQYASTYRVVSVLTVLHQDWLNGKEYKCKVSNKALPAPIEKTISKAKGQPREPQVYTLPPSRCELTKNQVSLSCAVKGFYPSDIAVEWESNGQPENNYKTTPPVLDSDGSFFLVSKLTVDKSRWQQGNVFSCSVMHEALHNHYTQKSLSLSPDYKDDDDK
chain: EPKSSDKTHTCPPCPAPELLGGPSVFLFPPKPKDTLMISRTPEVTCVVVDVSHEDPEVKFNWYVDGVEVHNAKTKPREEQYNSTYRVVSVLTVLHQDWLNGKEYKCKVSNKALPAPIEKTISKAKGQPREPQVCTLPPSRDELTKNQVSLWCLVKGFYPSDIAVEWESNGQPENNYKTTPPVLDSDGSFFLYSKLTVDKSRWQQGNVFSCSVMHEALHNRYTQKSLSLSP
light: DIVMTQSPLSLPVTPGEPASISCRSSQSLVHSNRNTYLHWYQQKPGQAPRLLIYKVSNRFSGVPDRFSGSGSGTDFTLKISRVEAEDVGVYYCGQGTQVPYTFGQGTKLEIKRTVAAPSVFIFPPSDEQLKSGTASVVCLLNNFYPREAKVQWKVDNALQSGNSQESVTEQDSKDSTYSLSSTLTLSKADYEKHKVYACEVTHQGLSSPVTKSFNRGEC
notes: as for B1
Turning to B5, the Kd stood at 0.0779 µM.

B6: TR01H056-E22Hh/none-Hi-Kn010G3/L0000-k0 (antibody, human IgG1, kappa, L234A L235A, N297A)
heavy: QVQLVESGGGLVQPGRSLRLSCAASGFTFSNAWMHWVRQAPGKGLEWVAQIKDKSQNYATYYAESVKGRFTISRDDSKNSLYLQMNSLKTEDTAVYYCRYVHYSASYGVDIWGQGTTVTVSSASTKGPSVFPLAPSSKSTSGGTAALGCLVKDYFPEPVTVSWNSGALTSGVHTFPAVLQSSGLYSLSSVVTVPSSSLGTQTYICNVNHKPSNTKVDKKVEPKSCDKTHTCPPCPAPEAAGGPSVFLFPPKPKDTLMISRTPEVTCVVVDVSHEDPEVKFNWYVDGVEVHNAKTKPREEQYASTYRVVSVLTVLHQDWLNGKEYKCKVSNKALPAPIEKTISKAKGQPREPQVYTLPPSRCELTKNQVSLSCAVKGFYPSDIAVEWESNGQPENNYKTTPPVLDSDGSFFLVSKLTVDKSRWQQGNVFSCSVMHEALHNHYTQKSLSLSPDYKDDDDK
chain: EPKSSDKTHTCPPCPAPELLGGPSVFLFPPKPKDTLMISRTPEVTCVVVDVSHEDPEVKFNWYVDGVEVHNAKTKPREEQYNSTYRVVSVLTVLHQDWLNGKEYKCKVSNKALPAPIEKTISKAKGQPREPQVCTLPPSRDELTKNQVSLWCLVKGFYPSDIAVEWESNGQPENNYKTTPPVLDSDGSFFLYSKLTVDKSRWQQGNVFSCSVMHEALHNRYTQKSLSLSP
light: DIVMTQSPLSLPVTPGEPASISCRSSQSLVHSNRNTYLHWYQQKPGQAPRLLIYKVSNRFSGVPDRFSGSGSGTDFTLKISRVEAEDVGVYYCGQGTQVPYTFGQGTKLEIKRTVAAPSVFIFPPSDEQLKSGTASVVCLLNNFYPREAKVQWKVDNALQSGNSQESVTEQDSKDSTYSLSSTLTLSKADYEKHKVYACEVTHQGLSSPVTKSFNRGEC
notes: as for B1
As for B6, the Kd worked out at 0.0732 µM.
